# Laboratory results as given in article PMC9557730 (2022).
# B1: C-terminal 3× FLAG-tagged WT Tfb2 [Saccharomyces cerevisiae] / Ssl2 [S. cerevisiae (endogenous in yeast)] (parent complex)
# chain 1: MSDYSLKHSVTQYLEEIPQQVQNRLYTSPATCLAIYRILPPLAKFFIMAMVFNENEVPLLDLDKWVNSNGKLQFQNAIKSMKSLHLLIPNKSSGTLMINLNPTFKISLRNALTGGEVQNSFGVVVEENVVSLDLLDEYSANKWETILHFMVGTPLAKIPSEKVLNLLKHSKLMEEVNSTGEFKITNEGFQFLLQEINSQLWTLLLQYLKMIETSKMDLVDVLHFIFMLGALEVGKAYKIDALSETQRIMLQDMRDYGLVFQKHSNDSIFYPTKLALMLTSDTKTIRSASNAMDSVLRQNREEPSVNEDGANGKSTTDITTSDDLNKAGLKNQDIPDGSLIVETNFKIYSYSNSPLQIAVLSLFVHLKARFVNMVLGQITRESIRRALTNGITADQIIAYLETHAHPQMRRLAEEKLEKKLELDPNCKEPLQVLPPTVVDQIRLWQLELDRVITYEGSLYSDFETSQEYNLLSKYAQDIGVLLWKDDKKKKFFISKEGNSQVLDFAKRKLKKKQ
# chain 2: MTDVEGYQPKSKGKIFPDMGESFFSSDEDSPATDAEIDENYDDNRETSEGRGERDTGAMVTGLKKPRKKTKSSRHTAADSSMNQMDAKDKALLQDTNSDIPADFVPDSVSGMFRSHDFSYLRLRPDHASRPLWISPSDGRIILESFSPLAEQAQDFLVTIAEPISRPSHIHEYKITAYSLYAAVSVGLETDDIISVLDRLSKVPVAESIINFIKGATISYGKVKLVIKHNRYFVETTQADILQMLLNDSVIGPLRIDSDHQVQPPEDVLQQQLQQTAGKPATNVNPNDVEAVFSAVIGGDNEREEEDDDIDAVHSFEIANESVEVVKKRCQEIDYPVLEEYDFRNDHRNPDLDIDLKPSTQIRPYQEKSLSKMFGNGRARSGIIVLPCGAGKTLVGITAACTIKKSVIVLCTSSVSVMQWRQQFLQWCTLQPENCAVFTSDNKEMFQTESGLVVSTYSMVANTRNRSHDSQKVMDFLTGREWGFIILDEVHVVPAAMFRRVVSTIAAHAKLGLTATLVREDDKIGDLNFLIGPKLYEANWMELSQKGHIANVQCAEVWCPMTAEFYQEYLRETARKRMLLYIMNPTKFQACQFLIQYHERRGDKIIVFSDNVYALQEYALKMGKPFIYGSTPQQERMNILQNFQYNDQINTIFLSKVGDTSIDLPEATCLIQISSHYGSRRQEAQRLGRILRAKRRNDEGFNAFFYSLVSKDTQEMYYSTKRQAFLVDQGYAFKVITHLHGMENIPNLAYASPRERRELLQEVLLKNEEAAGIEVGDDADNSVGRGSNGHKRFKSKAVRGEGSLSGLAGGEDMAYMEYSTNKNKELKEHHPLIRKMYYKNLKK
# B2: N-terminal 3×-FLAG-tagged p52 (WT) [human] / XPB [human (endogenous in HEK293T)] (parent complex)
# chain 1: MESTPSRGLNRVHLQCRNLQEFLGGLSPGVLDRLYGHPATCLAVFRELPSLAKNWVMRMLFLEQPLPQAAVALWVKKEFSKAQEESTGLLSGLRIWHTQLLPGGLQGLILNPIFRQNLRIALLGGGKAWSDDTSQLGPDKHARDVPSLDKYAEERWEVVLHFMVGSPSAAVSQDLAQLLSQAGLMKSTEPGEPPCITSAGFQFLLLDTPAQLWYFMLQYLQTAQSRGMDLVEILSFLFQLSFSTLGKDYSVEGMSDSLLNFLQHLREFGLVFQRKRKSRRYYPTRLAINLSSGVSGAGGTVHQPGFIVVETNYRLYAYTESELQIALIALFSEMLYRFPNMVVAQVTRESVQQAIASGITAQQIIHFLRTRAHPVMLKQTPVLPPTITDQIRLWELERDRLRFTEGVLYNQFLSQVDFELLLAHARELGVLVFENSAKRLMVVTPAGHSDVKRFWKRQKHSS
# chain 2: MGKRDRADRDKKKSRKRHYEDEEDDEEDAPGNDPQEAVPSAAGKQVDESGTKVDEYGAKDYRLQMPLKDDHTSRPLWVAPDGHIFLEAFSPVYKYAQDFLVAIAEPVCRPTHVHEYKLTAYSLYAAVSVGLQTSDITEYLRKLSKTGVPDGIMQFIKLCTVSYGKVKLVLKHNRYFVESCHPDVIQHLLQDPVIRECRLRNSEGEATELITETFTSKSAISKTAESSGGPSTSRVTDPQGKSDIPMDLFDFYEQMDKDEEEEEETQTVSFEVKQEMIEELQKRCIHLEYPLLAEYDFRNDSVNPDINIDLKPTAVLRPYQEKSLRKMFGNGRARSGVIVLPCGAGKSLVGVTAACTVRKRCLVLGNSAVSVEQWKAQFKMWSTIDDSQICRFTSDAKDKPIGCSVAISTYSMLGHTTKRSWEAERVMEWLKTQEWGLMILDEVHTIPAKMFRRVLTIVQAHCKLGLTATLVREDDKIVDLNFLIGPKLYEANWMELQNNGYIAKVQCAEVWCPMSPEFYREYVAIKTKKRILLYTMNPNKFRACQFLIKFHERRNDKIIVFADNVFALKEYAIRLNKPYIYGPTSQGERMQILQNFKHNPKINTIFISKVGDTSFDLPEANVLIQISSHGGSRRQEAQRLGRVLRAKKGMVAEEYNAFFYSLVSQDTQEMAYSTKRQRFLVDQGYSFKVITKLAGMEEEDLAFSTKEEQQQLLQKVLAATDLDAEEEVVAGEFGSRSSQASRRFGTMSSMSGADDTVYMEYHSSRSKAPSKHVHPLFKRFRK
# B3: N-terminal 3×-FLAG-tagged p52 (WT) [human] / p8 [human (endogenous in HEK293T)] (parent complex)
# chain 1: B2 chain 1
# chain 2: MVNVLKGVLIECDPAMKQFLLYLDESNALGKKFIIQDIDDTHVFVIAELVNVLQERVGELMDQNAFSLTQK
# B4: N-terminal 3×-FLAG-tagged p52 (WT) [human] / p34 [human (endogenous in HEK293T)] (parent complex)
# chain 1: B2 chain 1
# chain 2: MVSDEDELNLLVIVVDANPIWWGKQALKESQFTLSKCIDAVMVLGNSHLFMNRSNKLAVIASHIQESRFLYPGKNGRLGDFFGDPGNPPEFNPSGSKDGKYELLTSANEVIVEEIKDLMTKSDIKGQHTETLLAGSLAKALCYIHRMNKEVKDNQEMKSRILVIKAAEDSALQYMNFMNVIFAAQKQNILIDACVLDSDSGLLQQACDITGGLYLKVPQMPSLLQYLLWVFLPDQDQRSQLILPPPVHVDYRAACFCHRNLIEIGYVCSVCLSIFCNFSPICTTCETAFKISLPPVLKAKKKKLKVSA
# Variants of: B1
# Assay: FLAG IP and Western blot; whole-cell extracts; FLAG-tagged Tfb2 variants coexpressed with endogenous Tfb2; two biological replicates; read off a plot
row,Variant,response
1,"chain 1 L339A, chain 1 I340A, chain 1 V341A",~0.11 Western Signal/Tfb2-FLAG
2,chain 1 E447K,~0.5 Western Signal/Tfb2-FLAG
3,"chain 1 I347A, chain 1 Y348A, chain 1 Y350A",~0.14 Western Signal/Tfb2-FLAG
4,"chain 1 Y399A, chain 1 L400A",~0.28 Western Signal/Tfb2-FLAG
5,"chain 1 E342R, chain 1 K346E",~0.11 Western Signal/Tfb2-FLAG
6,"chain 1 G390A, chain 1 I391A, chain 1 T392A",~0.2 Western Signal/Tfb2-FLAG
7,chain 1 F370A,~0.085 Western Signal/Tfb2-FLAG
8,"chain 1 R369A, chain 1 F370A",~0.07 Western Signal/Tfb2-FLAG
9,"chain 1 D439A, chain 1 E447A, chain 1 R450A",~0.58 Western Signal/Tfb2-FLAG

# The next lines start with the values.
row,response,Variant
1,~0.19 Western Signal/Tfb2-FLAG,"chain 1 Y348A, chain 1 Y350A"
2,~0.23 Western Signal/Tfb2-FLAG,"chain 1 I347A, chain 1 Y348A"
3,~0.085 Western Signal/Tfb2-FLAG,chain 1 E342F
4,~0.38 Western Signal/Tfb2-FLAG,"chain 1 I396A, chain 1 I397A"
5,~0.29 Western Signal/Tfb2-FLAG,"chain 1 I378A, chain 1 T379A"
6,~0.17 Western Signal/Tfb2-FLAG,"chain 1 L360A, chain 1 L362A, chain 1 F363A"
7,~0.35 Western Signal/Tfb2-FLAG,"chain 1 Q395A, chain 1 I396A, chain 1 I397A"
8,~0.21 Western Signal/Tfb2-FLAG,"chain 1 I378A, chain 1 T379A, chain 1 R380A"

# Variants of: B2
# Assay: FLAG-IP–Western; HEK293T nuclear extracts; n = 3, biological replicates; read off a plot
row,response,Variant
1,~0.13 Normalized Western Signal,"chain 1 E310A, chain 1 R314A"
2,~0.03 Normalized Western Signal,"chain 1 R337A, chain 1 F338A"
3,~0.01 Normalized Western Signal,chain 1 E310F
4,~0.02 Normalized Western Signal,"chain 1 Y316A, chain 1 Y318A"

# Variants of: B2
# Assay: FLAG-IP LC–MS (iBAQ); HEK293T nuclear extracts; n = 3, biological replicates; read off a plot
row,response,Variant
1,~0.78 Normalized Log2 iBAQ,"chain 1 E310A, chain 1 R314A"
2,~0.67 Normalized Log2 iBAQ,"chain 1 R337A, chain 1 F338A"
3,~0.57 Normalized Log2 iBAQ,chain 1 E310F
4,~0.63 Normalized Log2 iBAQ,"chain 1 Y316A, chain 1 Y318A"

# Variants of: B3
# Assay: as above
row,Variant,response
1,"chain 1 R337A, chain 1 F338A",~0.84 Normalized Log2 iBAQ
2,chain 1 E310F,~0.86 Normalized Log2 iBAQ

# Second part, the variant after the results:
row,response,Variant
1,~0.83 Normalized Log2 iBAQ,"chain 1 Y316A, chain 1 Y318A"
2,~0.83 Normalized Log2 iBAQ,"chain 1 E310A, chain 1 R314A"

# Variants of: B4
# Assay: as above
row,response,Variant
1,~0.67 Normalized Log2 iBAQ,"chain 1 E310A, chain 1 R314A"
2,~0.67 Normalized Log2 iBAQ,"chain 1 Y316A, chain 1 Y318A"
3,~0.73 Normalized Log2 iBAQ,"chain 1 R337A, chain 1 F338A"
4,~0.64 Normalized Log2 iBAQ,chain 1 E310F
